From the supplement of paper PMC7125110 come the findings set out here.

B1: glmS ribozyme (parent)
chain: AUAAAAGCGCCAGAACUACAGAAAUGUAGUUGACGAGGAGGAGGUUUAUCGAAUUUUCGGCGGAUGCCUCCAAA

Holding throughout (settings): with glucosamine-6-phosphate
Data set [1] covers variants of B1. The data set is described as follows: self-cleavage kobs at 40 uM GlcN6P; higher = faster cleavage; RNA array. An outline of the steps: (§1)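 Tiles bearing barcoded ribozyme variants, transcribed in situ by E. coli RNA polymerase on sequenced MiSeq chips, were imaged over ~14 h at 37 °C using a hybridised Cy3 probe. Glucosamine-6-phosphate was supplied at 40 μM to 10 mM in HEPES/KCl/Mg(OAc)2 buffer. kobs came from one- or two-exponential decay fits to normalised per-tile medians, and weighted Michaelis–Menten fits then provided kcat and KM.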

Variants of B1 are the subject of data set [2]. The data set is described as follows: self-cleavage kobs at 2500 uM GlcN6P; higher = faster cleavage; RNA array. An outline of the steps: as §1
In data set [3] the parent is B1. The data set is described as follows: self-cleavage kobs at 10000 uM GlcN6P; higher = faster cleavage; RNA array. The method, boiled down: as §1
Variants of B1 are the subject of data set [4]. Description: self-cleavage kobs at 640 uM GlcN6P; higher = faster cleavage; RNA array. The method, boiled down: as §1
Data set [5] covers variants of B1. The data set is described as follows: self-cleavage kobs at 160 uM GlcN6P; higher = faster cleavage; RNA array. An outline of the steps: as §1

± gives the standard error. Fewer inactive variants are shown than the library holds. Bounds are passed on as bounds.

Turning to AUAAAAGCGACAGAACUACAGAAAUGUAGUUGACGAGGAGGAGGUUUAUGGAAUUUUCGGCGCAUGCCUCCAAA [C10A C50G G63C], in the data set with glucosamine-6-phosphate [1], the “self-cleavage kobs at 40 uM GlcN6P” value was found to be 0.000128 ± 3.3e-05 s⁻¹. Further, in the data set with glucosamine-6-phosphate [2], the “self-cleavage kobs at 2500 uM GlcN6P” value was 7.48e-05 ± 2.8e-05 s⁻¹. In addition, in the data set with glucosamine-6-phosphate [3], the “self-cleavage kobs at 10000 uM GlcN6P” value is 4.91e-05 ± 1.8e-05 s⁻¹.
In the case of AUAAAAGCGCUAGAACUACAGAAAUGUAGUUGACGGGGAGGAGGUUUAUGGAAUUUUCGGCGGAUGCCUCCAAA [C11U A36G C50G], in the data set with glucosamine-6-phosphate [1], the “self-cleavage kobs at 40 uM GlcN6P” value came out at 8.31e-05 ± 2.8e-05 s⁻¹. Moreover, the “self-cleavage kobs at 640 uM GlcN6P” value with glucosamine-6-phosphate [4] worked out at 0.000352 ± 0.00014 s⁻¹. The “self-cleavage kobs at 10000 uM GlcN6P” value in the data set with glucosamine-6-phosphate [3] is 4.94e-05 ± 1.5e-05 s⁻¹.
On to AUAAAAGCGCCAGAACUACAGAAAUGUAGUUGACGAGGAAGAGGUUUAUCGAAAUUUCGGCGGAUGCCUCCAAA [G40A U54A], for which the “self-cleavage kobs at 40 uM GlcN6P” value with glucosamine-6-phosphate [1] stood at 0.000696 ± 0.00017 s⁻¹. Besides, in the data set with glucosamine-6-phosphate [4], the “self-cleavage kobs at 640 uM GlcN6P” value amounted to 0.000502 ± 0.00015 s⁻¹. Further, in the data set with glucosamine-6-phosphate [2], the “self-cleavage kobs at 2500 uM GlcN6P” value is 0.00212 ± 0.00077 s⁻¹.
As for AUAAAAGCGCAAGAACUACAGAAAUGUAGUUGACGAGGAGGAGGUUUAUCUGAUUUACGGCGGAUCCCUACAAA [C11A G51U A52G U57A G66C C70A], the “self-cleavage kobs at 40 uM GlcN6P” value with glucosamine-6-phosphate [1] is 5.04e-05 ± 1.9e-05 s⁻¹. The “self-cleavage kobs at 10000 uM GlcN6P” value with glucosamine-6-phosphate [3] was 5e-05 ± 1.4e-05 s⁻¹.
With AUAAAAGCGCCAGAACUACAGAAAUGUAGUUGACGAGGAGGAGGUUUAUCGAAAUUUCGGCGGAUGACUCCAAA [U54A C67A], the “self-cleavage kobs at 40 uM GlcN6P” value with glucosamine-6-phosphate [1] stood at 0.000554 ± 0.00013 s⁻¹. For the same variant, in the data set with glucosamine-6-phosphate [5], the “self-cleavage kobs at 160 uM GlcN6P” value came out at 0.000242 ± 4.9e-05 s⁻¹. For the same variant, the “self-cleavage kobs at 640 uM GlcN6P” value with glucosamine-6-phosphate [4] turned out to be 0.00148 ± 0.00034 s⁻¹. In addition, the “self-cleavage kobs at 2500 uM GlcN6P” value with glucosamine-6-phosphate [2] stood at 0.00137 ± 0.00037 s⁻¹. Besides, in the data set with glucosamine-6-phosphate [3], the “self-cleavage kobs at 10000 uM GlcN6P” value is 0.00561 ± 0.0016 s⁻¹.
AUAAACGCGCCAGAACUACAGAAAUGUAGUUGACGCGGAGGAGGUUUAUCGAAUUUUCGGCGGAUGCCUCCAAA [A6C A36C]: in the data set with glucosamine-6-phosphate [1], the “self-cleavage kobs at 40 uM GlcN6P” value was less than 1e-05 s⁻¹. Also, in the data set with glucosamine-6-phosphate [5], the “self-cleavage kobs at 160 uM GlcN6P” value was less than 1e-05 s⁻¹. For the same variant, the “self-cleavage kobs at 10000 uM GlcN6P” value with glucosamine-6-phosphate [3] is less than 1e-05 s⁻¹.
As to AUAAAAGCGCCAGAACUACAGAAAUGUAGUUGACGAGGAGUAGGUUUAUCGAAUGUUCGGCGGAUGCUUUCAAA [G41U U55G C68U C70U], in the data set with glucosamine-6-phosphate [1], the “self-cleavage kobs at 40 uM GlcN6P” value was less than 1e-05 s⁻¹.
In the case of AUAAAAGUGCCAGAACUACAGAAAUGUAGCUGACGAGGAGGAGGUUUAUCGAAUUUUCGGCGGAUGCCUCCAAA [C8U U30C], the “self-cleavage kobs at 40 uM GlcN6P” value with glucosamine-6-phosphate [1] was less than 1e-05 s⁻¹. For the same variant, in the data set with glucosamine-6-phosphate [5], the “self-cleavage kobs at 160 uM GlcN6P” value was less than 1e-05 s⁻¹. Also, the “self-cleavage kobs at 640 uM GlcN6P” value with glucosamine-6-phosphate [4] is less than 1e-05 s⁻¹. The “self-cleavage kobs at 2500 uM GlcN6P” value with glucosamine-6-phosphate [2] is less than 1e-05 s⁻¹. The “self-cleavage kobs at 10000 uM GlcN6P” value with glucosamine-6-phosphate [3] is less than 1e-05 s⁻¹.
As to AUAAAAGCGCCAGAACUACAGAAAUGUAGUUGACGAGGAGGAGGUUUAUUGAAUUUUCGGCGGUUGCCUCCAAA [C50U A64U], the “self-cleavage kobs at 40 uM GlcN6P” value with glucosamine-6-phosphate [1] was less than 1e-05 s⁻¹. For the same variant, the “self-cleavage kobs at 160 uM GlcN6P” value with glucosamine-6-phosphate [5] was less than 1e-05 s⁻¹. In the data set with glucosamine-6-phosphate [3], the “self-cleavage kobs at 10000 uM GlcN6P” value is less than 1e-05 s⁻¹.
Regarding AUAAAAGCGCCAGAACUACAGAAAUGUAGUUGACGAGGAGCAGGUUUAUCGAAUUUUCGGUGGAUGCCUCCAAA [G41C C61U], the “self-cleavage kobs at 40 uM GlcN6P” value with glucosamine-6-phosphate [1] is less than 1e-05 s⁻¹. For the same variant, the “self-cleavage kobs at 160 uM GlcN6P” value with glucosamine-6-phosphate [5] was less than 1e-05 s⁻¹. Also, in the data set with glucosamine-6-phosphate [4], the “self-cleavage kobs at 640 uM GlcN6P” value was less than 1e-05 s⁻¹. Moreover, in the data set with glucosamine-6-phosphate [2], the “self-cleavage kobs at 2500 uM GlcN6P” value is less than 1e-05 s⁻¹. The “self-cleavage kobs at 10000 uM GlcN6P” value with glucosamine-6-phosphate [3] was less than 1e-05 s⁻¹.
As to AUAAAAGCGCCAGAAUUACAGAAAUGUAGAUGACGAAGAUGAGGUUUAUCGAAUUUUCGGCGGAAGCCUCCAAA [C16U U30A G37A G40U U65A], the “self-cleavage kobs at 40 uM GlcN6P” value with glucosamine-6-phosphate [1] was less than 1e-05 s⁻¹. For the same variant, the “self-cleavage kobs at 10000 uM GlcN6P” value with glucosamine-6-phosphate [3] was less than 1e-05 s⁻¹.
Take AUAAAAGCGCCAGAAGUACAGAAAUGUAGUUGAUGAGGAGGAGGUUUAUCGAAUUUUCAUCGGAUGCCUCCAAA [C16G C34U G59A G60U]: the “self-cleavage kobs at 40 uM GlcN6P” value in the data set with glucosamine-6-phosphate [1] was less than 1e-05 s⁻¹.
On to AUAAAACCGACAGAACUACAGAAAUGUAUUUGACGAGGAGGAGGUUUAUCGAAUUUUCGGCGGCUGCCUCCAAA [G7C C10A G29U A64C], for which, in the data set with glucosamine-6-phosphate [1], the “self-cleavage kobs at 40 uM GlcN6P” value is less than 1e-05 s⁻¹. Besides, the “self-cleavage kobs at 2500 uM GlcN6P” value in the data set with glucosamine-6-phosphate [2] was less than 1e-05 s⁻¹. The “self-cleavage kobs at 10000 uM GlcN6P” value in the data set with glucosamine-6-phosphate [3] was less than 1e-05 s⁻¹.
